Data set [1] has as its target T1, PYL4H82R V97A (AtPYL H82 and V97A).
T1 chain: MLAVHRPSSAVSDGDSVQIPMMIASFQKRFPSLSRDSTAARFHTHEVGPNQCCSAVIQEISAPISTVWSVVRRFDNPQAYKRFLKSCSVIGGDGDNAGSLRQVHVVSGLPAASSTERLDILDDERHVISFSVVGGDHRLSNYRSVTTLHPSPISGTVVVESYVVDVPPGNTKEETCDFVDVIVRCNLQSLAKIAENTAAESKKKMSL

For data set [2], the target named is T2, PYL4C176R F130Y (AtPYL F130Y and C176R).
T2 chain: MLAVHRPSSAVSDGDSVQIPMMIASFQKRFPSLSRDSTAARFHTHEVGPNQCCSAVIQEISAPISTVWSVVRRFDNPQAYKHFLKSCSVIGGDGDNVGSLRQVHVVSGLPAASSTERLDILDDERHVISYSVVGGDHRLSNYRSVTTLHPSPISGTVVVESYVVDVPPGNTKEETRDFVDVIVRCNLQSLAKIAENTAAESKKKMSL

The target in data set [3] is T3, PP2CA (clade A protein phosphatase 2C, At3g11410) (Arabidopsis thaliana, UniProt P49598 1-399, limits assumed).
T3 sequence (looked up): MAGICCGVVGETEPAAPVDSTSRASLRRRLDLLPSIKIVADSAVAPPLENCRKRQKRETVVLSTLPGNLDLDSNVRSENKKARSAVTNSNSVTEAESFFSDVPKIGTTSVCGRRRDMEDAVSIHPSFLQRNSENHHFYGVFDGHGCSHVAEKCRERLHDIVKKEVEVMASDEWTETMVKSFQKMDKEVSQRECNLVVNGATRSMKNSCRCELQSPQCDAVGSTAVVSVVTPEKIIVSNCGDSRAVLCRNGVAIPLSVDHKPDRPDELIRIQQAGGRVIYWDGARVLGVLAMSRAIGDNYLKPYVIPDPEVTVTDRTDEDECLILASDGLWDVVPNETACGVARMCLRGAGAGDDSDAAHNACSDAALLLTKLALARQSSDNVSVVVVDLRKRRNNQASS
Briefly: cell-based or functional assay.

Data set [4] has as its target T4, HAB1 (clade A protein phosphatase 2C) (Arabidopsis thaliana, UniProt Q9CAJ0 23-511, limits assumed).
T4 sequence (looked up): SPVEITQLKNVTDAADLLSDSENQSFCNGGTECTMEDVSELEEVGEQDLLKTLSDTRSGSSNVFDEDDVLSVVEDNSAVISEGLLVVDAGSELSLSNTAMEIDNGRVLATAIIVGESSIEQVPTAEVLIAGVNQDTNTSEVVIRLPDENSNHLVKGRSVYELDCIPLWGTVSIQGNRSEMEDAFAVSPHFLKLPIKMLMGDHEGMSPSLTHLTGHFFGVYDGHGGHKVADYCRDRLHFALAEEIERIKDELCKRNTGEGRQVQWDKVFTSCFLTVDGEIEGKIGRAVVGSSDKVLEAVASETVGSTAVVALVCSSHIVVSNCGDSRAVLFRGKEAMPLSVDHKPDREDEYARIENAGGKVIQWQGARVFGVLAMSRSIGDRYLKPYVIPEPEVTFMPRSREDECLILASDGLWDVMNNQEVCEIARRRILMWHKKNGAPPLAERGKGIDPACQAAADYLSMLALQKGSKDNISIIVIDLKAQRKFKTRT
Briefly: cell-based or functional assay.

Data set [5] concerns PP2CA. Briefly: Yeast two hybrid (Y2H) growth assay with PP2CA. In kind it is cell-based, Arabidopsis. Conditions: for interaction with PP2CA in Y2H assay: absence of ABA, growth on medium lacking His and Ade. The method, then: We conducted error-prone PCR mutagenesis by amplification of the PYL4 open reading frame using the following primers: FPYL4Ncol, 5″-GCAGCAGCCATGGTTGCCG TTCACCGTCCTTCT and RPYL4EcoRIstop: […] TCT TCTTCTT, and the following conditions: 2 mM dGTP, dCTP and dTTP, 0.5 mM dATP, 12 mM MgCl2 and Taq polymerase. The PCR product was Ncol-EcoRI doubly digested, cloned into the pGBKT7 vector and DH10B cells were transformed by electroporation. Thus, we generated an allele library in E. coli of approximately 10,000 PYL4 mutant clones. […] The library was shuttled to yeast AH109 by co-transformation with pGAD7-PP2CA. Yeast transformants were pooled and clones able to grow in the absence of exogenous ABA in medium lacking histidine and adenine were selected. Yeast plasmids were extracted, sequenced and retransformed in yeast cells to recapitulate the phenotype. Protocols for yeast two hybrid assays were similar to those described previously (Saez et al., 2008).

The subject of data set [6] is PP2CA. Briefly: In vitro phosphatase activity assay with pNPP substrate, PP2CA. The settings on record: absence of ABA. In kind it is biochemical, Arabidopsis. The method, then: (§1) Phosphatase activity was measured using as a substrate either pNPP or phosphorylated ΔC-ABF2, ΔC-ABI5 and SLAC11-186 proteins. For the pNPP substrate, assays were performed in a 100 μl solution containing 25 mM Tris-HCl pH 7.5, 2 mM MnCl2 and 5 mM pNPP. Assays contained 2 μM phosphatase (PP2CA or HAB1), 4 μM receptor and the indicated concentrations of ABA. Phosphatase activity was recorded with a ViktorX5 reader at 405 nm every 60 seconds over 30 minutes and the activity obtained after 30 minutes is indicated in the graphics. In order to obtain phosphorylated ΔCABF2, ΔC-ABI5 and SLAC11-186 proteins, OST1 phosphorylation assays were done basically as described previously (Dupeux et al., 2011 b). ΔC-ABF2 and SLAC11-186 N-terminal fragments were prepared as described (Antoni et al., 2012; Vahisalu et al., 2010). ΔC-ABI5 recombinant protein (amino acid residues 1-200, containing the C1, C2 and C3 target sites of ABA-activated SnRK2s) was expressed in the pETM11 vector as described above. The reaction mixture containing the OST1 kinase and either ΔCABF2, ΔC-ABI5 or SLAC11-186 recombinant proteins were incubated for 50 min at room temperature in 30 μl of kinase buffer: 20 mM Tris-HCl pH 7.8, 20 mM MgCl2, 2 mM MnCl2, and 3.5 μCi of γ-32ATP (3000 Ci/mmol). Thus, OST1 was autophosphorylated and in turn it phosphorylated ΔC-ABF2, ΔC-ABI5 and SLAC11-186 proteins. Next, they were used as substrates of PP2CA that was preincubated (or not) for 10 with PYL4 or PYL4A194T (1:10 phosphatase:receptor ratio) either in the absence or presence of 30 μM ABA. The reaction was stopped by adding Laemmli buffer and the proteins were separated by SDS-PAGE using an 8% acrylamide gel and transferred to an Immobilon-P membrane (Millipore). Radioactivity was detected and quantified using a Phosphorimage system (FLA5100, Fujifilm). After scanning, the same membrane was used for Ponceau staining. The data presented are averages of at least three independent experiments.

Data set [7] addresses T5, PP2CA (Arabidopsis thaliana, UniProt O80920+P49598, C176R/F130Y).
T5 construct: made in house; host or cells: E. coli BL21 (DE3)
Described as above. The settings on record: presence of ABA. The data set is classed as biochemical. As for the experimental part: as §1

Data set [8] deals with T3, PP2CA (clade A protein phosphatase 2C, …). Briefly: yeast two-hybrid growth assay, presence of ABA.
In data set [9] the test system is Arabidopsis thaliana plants. Briefly: Seedling establishment and early seedling growth of OE lines on ABA. The data set is classed as in vivo. The settings on record: 0.25 or 0.5 μM ABA. The text has this: PYL4 or PYL4 mutants were cloned into pCR8/GW/TOPO entry vector (Invitrogen) and recombined by LR reaction into the gateway compatible ALLIGATOR2 vector (Bensmihen et al., 2004). This construct drives expression of PYL4 under control of the 35S CaMV promoter and introduces a triple HA epitope at the N-terminus of the protein. Selection of transgenic lines is based on the visualization of GFP in seeds, whose expression is driven by the specific seed promoter At2S3. The ALLIGATOR2-35S:3HA-PYL4 or mutant constructs were transferred to Agrobacterium tumefaciens C58C1 (pGV2260) (Deblaere et al., 1985) by electroporation and used to transform Columbia wild type plants by the floral dip method. T1 transgenic seeds were selected based on GFP visualization and sowed in soil to obtain the T2 generation. At least three independent transgenic lines were generated for each construct. Homozygous T3 progeny was used for further studies and expression of HA-tagged protein in 21-d-old seedlings was verified by immunoblot analysis using anti-HA-peroxidase (Roche).
After surface sterilization of the seeds, stratification was conducted in the dark at 4° C. for 3 d. Approximately 100 seeds of each genotype were sowed on MS plates supplemented with different ABA concentrations per experiment. To score seed germination, radical emergence was analyzed at 72 h after sowing. Seedling establishment was scored as the percentage of seeds that developed green expanded cotyledons and the first pair of true leaves at 7-d.

Data set [10] deals with T3, PP2CA (clade A protein phosphatase 2C, …). Briefly: yeast two-hybrid growth assay, absence of ABA.

B1: PP2CA (clade A protein phosphatase 2C, At3g11410) (protein)
chain: MAGICCGVVGETEPAAPVDSTSRASLRRRLDLLPSIKIVADSAVAPPLENCRKRQKRETVVLSTLPGNLDLDSNVRSENKKARSAVTNSNSVTEAESFFSDVPKIGTTSVCGRRRDMEDAVSIHPSFLQRNSENHHFYGVFDGHGCSHVAEKCRERLHDIVKKEVEVMASDEWTETMVKSFQKMDKEVSQRECNLVVNGATRSMKNSCRCELQSPQCDAVGSTAVVSVVTPEKIIVSNCGDSRAVLCRNGVAIPLSVDHKPDRPDELIRIQQAGGRVIYWDGARVLGVLAMSRAIGDNYLKPYVIPDPEVTVTDRTDEDECLILASDGLWDVVPNETACGVARMCLRGAGAGDDSDAAHNACSDAALLLTKLALARQSSDNVSVVVVDLRKRRNNQASS
Turning to B1, the “PP2CA phosphatase activity (pNPP substrate) in the absence of ABA” value in data set [1] was “although the H82RV97A and F130Y C176R mutations promoted ABA-independent interactions in Y2H assay, they did not affect PP2CA activity in the absence of ABA”; in data set [2], “although the H82RV97A and F130Y C176R mutations promoted ABA-independent interactions in Y2H assay, they did not affect PP2CA activity in the absence of ABA”.

B2: AtPYL4 wild type polypeptide (At2g38310) (receptor)
chain: MLAVHRPSSAVSDGDSVQIPMMIASFQKRFPSLSRDSTAARFHTHEVGPNQCCSAVIQEISAPISTVWSVVRRFDNPQAYKHFLKSCSVIGGDGDNVGSLRQVHVVSGLPAASSTERLDILDDERHVISFSVVGGDHRLSNYRSVTTLHPSPISGTVVVESYVVDVPPGNTKEETCDFVDVIVRCNLQSLAKIAENTAAESKKKMSL
Consider B2, for which the “IC50 of inhibition of PP2CA phosphatase activity (pNPP substrate; 2 µM phosphatase, 4 µM receptor, ABA concentration varied)” value in [3] is 1 µM. The “IC50 of inhibition of HAB1 phosphatase activity (pNPP substrate; 2 µM phosphatase, 4 µM receptor, ABA concentration varied)” value in data set [4] was 0.25 µM.

B3: PYL4C176R F130Y: AtPYL4 mutant polypeptide with F130Y and C176R substitutions (SEQ ID NO. 63) (protein, listed as Arabidopsis thaliana)
chain: MLAVHRPSSAVSDGDSVQIPMMIASFQKRFPSLSRDSTAARFHTHEVGPNQCCSAVIQEISAPISTVWSVVRRFDNPQAYKHFLKSCSVIGGDGDNVGSLRQVHVVSGLPAASSTERLDILDDERHVISYSVVGGDHRLSNYRSVTTLHPSPISGTVVVESYVVDVPPGNTKEETRDFVDVIVRCNLQSLAKIAENTAAESKKKMSL
In the case of B3, in the data set with PP2CA [5], the “interaction with PP2CA in Y2H assay” value is “enhanced the interaction of PYL4 and PP2CA in the absence of ABA”. For the same molecule, the “effect on PP2CA activity” value in the data set on PP2CA [6] is on record as “did not affect PP2CA activity”. The “capacity to inhibit PP2CA” value in the data set with PP2CA [7] is listed as “lower capacity to inhibit PP2CA”.

B4: PYL4V97A (AtPYL V97A) (receptor)
chain: MLAVHRPSSAVSDGDSVQIPMMIASFQKRFPSLSRDSTAARFHTHEVGPNQCCSAVIQEISAPISTVWSVVRRFDNPQAYKHFLKSCSVIGGDGDNAGSLRQVHVVSGLPAASSTERLDILDDERHVISFSVVGGDHRLSNYRSVTTLHPSPISGTVVVESYVVDVPPGNTKEETCDFVDVIVRCNLQSLAKIAENTAAESKKKMSL
Turning to B4, the “interaction with PP2CA in Y2H assay” value with PP2CA [5] is on record as “did not affect the interaction in the absence of ABA”. Besides, the “yeast growth in Y2H assay with PP2CA” value in the data set with PP2CA [5] (presence of ABA (50 μM)) is given as “increased yeast growth”. Also, in data set [8], the binding result was “binds”. Besides, in [9], the “ABA-mediated inhibition of seedling establishment” value is “enhanced ABA-mediated inhibition of seedling establishment compared to non-transformed plants”.

B5: PYL4C176R F130Y (AtPYL F130Y and C176R) (receptor)
chain: MLAVHRPSSAVSDGDSVQIPMMIASFQKRFPSLSRDSTAARFHTHEVGPNQCCSAVIQEISAPISTVWSVVRRFDNPQAYKHFLKSCSVIGGDGDNVGSLRQVHVVSGLPAASSTERLDILDDERHVISYSVVGGDHRLSNYRSVTTLHPSPISGTVVVESYVVDVPPGNTKEETRDFVDVIVRCNLQSLAKIAENTAAESKKKMSL
notes: also called F130Y C176R
Consider B5, for which, in data set [10], the binding result is listed as “binds”.

For the origin of these results see patent publication US20160068860A1, “TRANSGENIC PLANTS” (CONSEJO SUPERIOR DE INVESTIGACIONES CIENTIFICAS (CSIC), priority 2013, published 2016).
